# Experimental data reported in IntAct's records for PubMed 31515488.
# B1: Cyclic AMP-responsive element-binding protein 3-like protein 1 (Homo sapiens), Q96BA8 (parent)
# chain: MDAVLEPFPADRLFPGSSFLDLGDLNESDFLNNAHFPEHLDHFTENMEDFSNDLFSSFFDDPVLDEKSPLLDMELDSPTPGIQAEHSYSLSGDSAPQSPLVPIKMEDTTQDAEHGAWALGHKLCSIMVKQEQSPELPVDPLAAPSAMAAAAAMATTPLLGLSPLSRLPIPHQAPGEMTQLPVIKAEPLEVNQFLKVTPEDLVQMPPTPPSSHGSDSDGSQSPRSLPPSSPVRPMARSSTAISTSPLLTAPHKLQGTSGPLLLTEEEKRTLIAEGYPIPTKLPLTKAEEKALKRVRRKIKNKISAQESRRKKKEYVECLEKKVETFTSENNELWKKVETLENANRTLLQQLQKLQTLVTNKISRPYKMAATQTGTCLMVAALCFVLVLGSLVPCLPEFSSGSQTVKEDPLAADGVYTASQMPSRSLLFYDDGAGLWEDGRSTLLPMEPPDGWEINPGGPAEQRPRDHLQHDHLDSTHETTKYLSEAWPKDGGNGTSPDFSHSKEWFHDRDLGPNTTIKLS
# partner: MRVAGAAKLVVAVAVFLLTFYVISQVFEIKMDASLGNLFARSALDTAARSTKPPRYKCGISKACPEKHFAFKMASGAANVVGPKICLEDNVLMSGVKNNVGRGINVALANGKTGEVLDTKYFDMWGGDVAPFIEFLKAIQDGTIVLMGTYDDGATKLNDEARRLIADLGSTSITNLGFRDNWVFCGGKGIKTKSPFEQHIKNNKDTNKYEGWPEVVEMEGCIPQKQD
# B2: Microtubule-associated protein RP/EB family member 1 (Homo sapiens), Q15691 (parent)
# chain: MAVNVYSTSVTSDNLSRHDMLAWINESLQLNLTKIEQLCSGAAYCQFMDMLFPGSIALKKVKFQAKLEHEYIQNFKILQAGFKRMGVDKIIPVDKLVKGKFQDNFEFVQWFKKFFDANYDGKDYDPVAARQGQETAVAPSLVAPALNKPKKPLTSSSAAPQRPISTQRTAAAPKAGPGVVRKNPGVGNGDDEAAELMQQVNVLKLTVEDLEKERDFYFGKLRNIELICQENEGENDPVLQRIVDILYATDEGFVIPDEGGPQEEQEEY
# B3: Homeobox protein VENTX (Homo sapiens), O95231 (parent)
# chain: MRLSSSPPRGPQQLSSFGSVDWLSQSSCSGPTHTPRPADFSLGSLPGPGQTSGAREPPQAVSIKEAAGSSNLPAPERTMAGLSKEPNTLRAPRVRTAFTMEQVRTLEGVFQHHQYLSPLERKRLAREMQLSEVQIKTWFQNRRMKHKRQMQDPQLHSPFSGSLHAPPAFYSTSSGLANGLQLLCPWAPLSGPQALMLPPGSFWGLCQVAQEALASAGASCCGQPLASHPPTPGRPSLGPALSTGPRGLCAMPQTGDAF
# partner: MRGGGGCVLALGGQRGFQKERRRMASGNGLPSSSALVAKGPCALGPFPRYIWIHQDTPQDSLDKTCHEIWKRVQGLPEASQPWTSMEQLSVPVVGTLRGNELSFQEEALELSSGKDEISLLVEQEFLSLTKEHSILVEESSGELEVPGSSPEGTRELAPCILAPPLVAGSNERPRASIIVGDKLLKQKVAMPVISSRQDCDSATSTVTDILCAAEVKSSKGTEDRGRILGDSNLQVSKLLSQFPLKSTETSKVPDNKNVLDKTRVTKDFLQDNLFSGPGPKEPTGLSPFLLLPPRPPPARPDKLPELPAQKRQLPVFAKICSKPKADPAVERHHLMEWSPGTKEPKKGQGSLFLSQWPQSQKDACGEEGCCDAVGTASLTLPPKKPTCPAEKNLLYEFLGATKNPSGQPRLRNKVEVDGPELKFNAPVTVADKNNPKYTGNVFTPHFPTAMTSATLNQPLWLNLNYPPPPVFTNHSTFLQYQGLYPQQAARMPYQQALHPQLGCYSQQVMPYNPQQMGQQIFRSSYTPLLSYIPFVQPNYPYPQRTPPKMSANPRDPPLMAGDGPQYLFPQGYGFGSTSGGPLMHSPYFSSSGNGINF
# B4: Protein LDOC1 (Homo sapiens), O95751 (parent)
# chain: MVDELVLLLHALLMRHRALSIENSQLMEQLRLLVCERASLLRQVRPPSCPVPFPETFNGESSRLPEFIVQTASYMLVNENRFCNDAMKVAFLISLLTGEAEEWVVPYIEMDSPILGDYRAFLDEMKQCFGWDDDEDDDDEEEEDDY
# partner: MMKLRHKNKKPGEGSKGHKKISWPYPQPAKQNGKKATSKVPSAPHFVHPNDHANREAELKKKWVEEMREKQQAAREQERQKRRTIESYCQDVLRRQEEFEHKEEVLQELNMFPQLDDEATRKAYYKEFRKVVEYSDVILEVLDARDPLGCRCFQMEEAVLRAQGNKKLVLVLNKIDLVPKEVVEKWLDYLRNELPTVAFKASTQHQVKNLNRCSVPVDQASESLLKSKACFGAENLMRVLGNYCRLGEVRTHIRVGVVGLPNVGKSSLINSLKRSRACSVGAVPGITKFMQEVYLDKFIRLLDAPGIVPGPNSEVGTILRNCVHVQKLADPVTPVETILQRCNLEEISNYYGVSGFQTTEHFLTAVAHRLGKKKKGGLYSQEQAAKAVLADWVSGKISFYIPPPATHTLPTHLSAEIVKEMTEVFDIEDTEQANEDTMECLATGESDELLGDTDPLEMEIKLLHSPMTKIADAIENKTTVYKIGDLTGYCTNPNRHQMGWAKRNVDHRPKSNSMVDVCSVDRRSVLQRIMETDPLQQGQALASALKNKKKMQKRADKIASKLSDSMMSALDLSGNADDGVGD
# B5: Ligand of Numb protein X 2 (Homo sapiens), Q8N448 (parent)
# chain: MGTTSDEMVSVEQTSSSSLNPLCFECGQQHWTRENHLYNYQNEVDDDLVCHICLQPLLQPLDTPCGHTFCYKCLRNFLQEKDFCPLDRKRLHFKLCKKSSILVHKLLDKLLVLCPFSSVCKDVMQRCDLEAHLKNRCPGASHRRVALERRKTSRTQAEIENENGPTLLDPAGTLSPEADCLGTGAVPVERHLTSASLSTWSEEPGLDNPAFEESAGADTTQQPLSLPEGEITTIEIHRSNPYIQLGISIVGGNETPLINIVIQEVYRDGVIARDGRLLAGDQILQVNNYNISNVSHNYARAVLSQPCNTLHLTVLRERRFGNRAHNHSDSNSPREEIFQVALHKRDSGEQLGIKLVRRTDEPGVFILDLLEGGLAAQDGRLSSNDRVLAINGHDLKYGTPELAAQIIQASGERVNLTIARPGKPQPGNTIREAGNHSSSSQHHTPPPYYSRPSSHKDLTQCVTCQEKHITVKKEPHESLGMTVAGGRGSKSGELPIFVTSVPPHGCLARDGRIKRGDVLLNINGIDLTNLSHSEAVAMLKASAASPAVALKALEVQIVEEATQNAEEQPSTFSENEYDASWSPSWVMWLGLPSTLHSCHDIVLRRSYLGSWGFSIVGGYEENHTNQPFFIKTIVLGTPAYYDGRLKCGDMIVAVNGLSTVGMSHSALVPMLKEQRNKVTLTVICWPGSLV
# partner: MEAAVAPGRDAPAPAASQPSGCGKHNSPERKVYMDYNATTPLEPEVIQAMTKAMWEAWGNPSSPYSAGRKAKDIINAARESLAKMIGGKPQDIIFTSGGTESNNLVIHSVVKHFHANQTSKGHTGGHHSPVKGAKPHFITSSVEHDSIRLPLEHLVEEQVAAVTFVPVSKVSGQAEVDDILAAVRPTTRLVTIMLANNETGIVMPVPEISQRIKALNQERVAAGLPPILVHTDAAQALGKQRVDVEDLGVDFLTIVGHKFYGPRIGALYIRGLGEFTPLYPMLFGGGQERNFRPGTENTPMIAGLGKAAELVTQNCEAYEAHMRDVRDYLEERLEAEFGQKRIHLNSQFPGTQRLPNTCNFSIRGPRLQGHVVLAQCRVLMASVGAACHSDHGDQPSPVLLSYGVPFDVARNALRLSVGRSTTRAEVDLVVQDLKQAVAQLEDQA
# B6: Proline-rich protein 3 (Homo sapiens), P79522 (parent)
# chain: MPKRKKQNHHQPPTQQQPPLPEREETGDEEDGSPIGPPSLLGPPPMANGKPGDPKSALHRGPPGSRGPLIPPLLSLPPPPWGRGPIRRGLGPRSSPYGRGWWGVNAEPPFPGPGHGGPTRGSFHKEQRNPRRLKSWSLIKNTCPPKDDPQVMEDKSDRPVCRHFAKKGHCRYEDLCAFYHPGVNGPPL
# partner: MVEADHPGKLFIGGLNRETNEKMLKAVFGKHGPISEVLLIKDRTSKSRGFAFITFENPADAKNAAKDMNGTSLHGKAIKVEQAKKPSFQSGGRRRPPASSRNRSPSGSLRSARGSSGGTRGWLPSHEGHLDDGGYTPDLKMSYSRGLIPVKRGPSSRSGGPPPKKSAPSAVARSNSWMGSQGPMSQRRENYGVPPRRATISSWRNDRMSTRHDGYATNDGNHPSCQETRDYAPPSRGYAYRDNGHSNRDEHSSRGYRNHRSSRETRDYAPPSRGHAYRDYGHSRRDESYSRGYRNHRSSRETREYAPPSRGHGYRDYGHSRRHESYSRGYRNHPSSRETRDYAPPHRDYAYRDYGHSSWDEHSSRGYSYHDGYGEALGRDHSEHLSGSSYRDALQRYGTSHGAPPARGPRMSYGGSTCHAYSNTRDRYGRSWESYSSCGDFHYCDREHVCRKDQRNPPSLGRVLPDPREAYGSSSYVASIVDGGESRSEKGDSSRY
# B7: Copper homeostasis protein cutC homolog (Homo sapiens), Q9NTM9 (parent)
# chain: MKRQGASSERKRARIPSGKAGAANGFLMEVCVDSVESAVNAERGGADRIELCSGLSEGGTTPSMGVLQVVKQSVQIPVFVMIRPRGGDFLYSDREIEVMKADIRLAKLYGADGLVFGALTEDGHIDKELCMSLMAICRPLPVTFHRAFDMVHDPMAALETLLTLGFERVLTSGCDSSALEGLPLIKRLIEQAKGRIVVMPGGGITDRNLQRILEGSGATEFHCSARSTRDSGMKFRNSSVAMGASLSCSEYSLKVTDVTKVRTLNAIAKNILV
# partner: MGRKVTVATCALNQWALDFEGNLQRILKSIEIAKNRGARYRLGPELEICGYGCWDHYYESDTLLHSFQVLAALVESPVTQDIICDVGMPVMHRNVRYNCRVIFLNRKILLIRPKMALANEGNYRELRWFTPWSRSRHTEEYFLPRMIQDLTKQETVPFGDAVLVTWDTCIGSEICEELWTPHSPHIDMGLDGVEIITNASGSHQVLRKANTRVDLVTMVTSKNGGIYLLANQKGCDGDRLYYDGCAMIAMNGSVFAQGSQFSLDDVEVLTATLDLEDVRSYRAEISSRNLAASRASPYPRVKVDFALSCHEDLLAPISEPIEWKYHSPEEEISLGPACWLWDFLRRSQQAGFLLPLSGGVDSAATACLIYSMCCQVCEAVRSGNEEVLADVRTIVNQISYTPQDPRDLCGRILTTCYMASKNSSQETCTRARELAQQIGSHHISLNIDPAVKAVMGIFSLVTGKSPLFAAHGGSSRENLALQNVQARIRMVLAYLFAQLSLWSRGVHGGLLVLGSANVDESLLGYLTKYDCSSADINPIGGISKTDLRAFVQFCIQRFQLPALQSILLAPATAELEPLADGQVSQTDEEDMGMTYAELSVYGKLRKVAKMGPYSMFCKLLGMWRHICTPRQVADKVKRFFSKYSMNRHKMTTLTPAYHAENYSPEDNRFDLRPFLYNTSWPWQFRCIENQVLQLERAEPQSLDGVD
# Variants of: B1
# Conditions: with fam3c_human FAM3C
row,effect of a mutation on the interaction,Variant
1,with no effect,A152T
2,with no effect,I516S

# Variants of: B2
# Conditions: with mare3_human MAPRE3, Q9UPY8
# Chain of mare3_human MAPRE3, Q9UPY8 (Q9UPY8 whole entry): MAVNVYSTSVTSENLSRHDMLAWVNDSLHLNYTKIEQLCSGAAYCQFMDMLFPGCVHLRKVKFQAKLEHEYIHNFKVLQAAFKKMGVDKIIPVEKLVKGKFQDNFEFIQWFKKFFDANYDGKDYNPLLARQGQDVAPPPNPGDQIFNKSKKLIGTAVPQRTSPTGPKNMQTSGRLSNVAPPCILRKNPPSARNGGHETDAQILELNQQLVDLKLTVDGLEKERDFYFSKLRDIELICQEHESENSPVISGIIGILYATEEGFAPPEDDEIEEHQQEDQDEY
row,effect of a mutation on the interaction,Variant
1,with no effect,I56V
2,with no effect,N201S

# Variants of: B3
# Conditions: with ca094_human C1orf94, Q6P1W5
row,effect of a mutation on the interaction,Variant
1,with no effect,M251V
2,with no effect,L42P
3,with no effect,A226E

# Variants of: B4
# Conditions: with gnl3l_human GNL3L
row,effect of a mutation on the interaction,Variant
1,disrupting interaction strength,L12H

# Variants of: B5
# Conditions: with scly_human SCLY
row,effect of a mutation on the interaction,Variant
1,with no effect,S198P

# Variants of: B6
# Conditions: with rby1f_human RBMY1F
row,effect of a mutation on the interaction,Variant
1,with no effect,R87W

# Variants of: B7
# Conditions: with nade_human NADSYN1, Q6IA69
row,effect of a mutation on the interaction,Variant
1,disrupting interaction strength,P77L
